Data on 1 sequence can be found in article PMC7987339.

In this data set the target is Hfq (Escherichia coli) (UniProt P0A6X3). Briefly: competition. The conditions noted are these: 10 nM (so in the source) Tris-HCl pH 8.0, 1 mM DTT, 1 mM MgCl2, 20 mM KCl, 10 mM Na phosphate pH 8.0, 12.5 ug/mL yeast tRNA; 15 min at 37 C; native 5% PAGE in 1X TBE ….
Hfq (Escherichia coli), sequence (P0A6X3 whole entry): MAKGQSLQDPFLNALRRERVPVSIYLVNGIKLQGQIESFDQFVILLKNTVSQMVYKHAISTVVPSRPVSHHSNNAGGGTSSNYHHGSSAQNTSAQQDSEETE

“GGACACCGUCGCUUAAAGUGACGGCAUAAUAAUAAAAAAAUGAAAUUCCUCUUUGACGGGCCAAUAGCGAUAUUGGCCAUUUUUUU [ChiX sRNA]”: the binding entry is reported as “binds”.
